Assay results from publication PMC10953500 (2024).

Assays:
[1] = target: recombinant CD89 (Fc-alpha receptor, FcαRI) with C-terminal His-tag (UniProt P24071 22-227); test: SPR
[2] = target: receptor binding domain (RBD) of the SARS-CoV-2 spike protein with C-terminal 6xHis-tag (SARS-CoV-2, UniProt P0DTC2 319-541); test: SPR

Chain of recombinant CD89 (Fc-alpha receptor, FcαRI) with C-terminal His-tag (P24071 22-227): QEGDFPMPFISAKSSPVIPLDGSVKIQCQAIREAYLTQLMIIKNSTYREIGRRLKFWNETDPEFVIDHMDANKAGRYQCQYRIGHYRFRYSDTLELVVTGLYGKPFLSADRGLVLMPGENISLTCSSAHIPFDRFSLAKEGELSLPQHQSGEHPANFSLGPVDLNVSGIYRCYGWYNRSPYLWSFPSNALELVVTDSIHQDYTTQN

B1: COVA2-15 monomeric IgA2 (antibody)
chain 1: QVQLLESGGGLVQPGGSLRLSCAASGFTFSSYAMSWVRQAPGKGLEWASAISGSGGSTYYADSVEGRFTISRDNSKNTLYLQMNSLRAEDTAVYYCAKDTGYCGDDCYIKLIRGGPDYWGQGTLVTVSS
chain 2: DIVMTQSPLSLPVTLGQPASISCRSSQSLVYSDGNTFLNWFQQRPGQSPRRLIYQVSNRDSGVPDRFSGSGSGTDFTLKISRVEAEDVGVYYCMQGTHWPRTFGQGTKLEIK
[1]
  Kd: 35.7 nM
[2]
  Kd: 1.56 nM
